This note sets out measurements from patent publication US20190367589A1.

The target in assay [1] is rat Jagged 2 (rJAG2) (rat) (UniProt P97607). Put plainly: drawn table 'Kd (nM)' of Fab; method not stated; the legend names the matured antibody as 4D11.
Assay [2] deals with mouse Jagged 1 (mouse). Put plainly: ELISA as for the other curves; sheet and legend say mouse Jagged 1, the method lists rat Jagged 1-Fc as the coated protein.
Assay [3] addresses mouse Jagged 1 (mouse). Put plainly: ELISA, ligand-Fc coated (method lists rat Jagged 1-Fc), anti-human IgG Fab-specific HRP.

Positions count from the first letter of the chain named.

B1: 4D11 Fab (Fab, V domains shown)
VH: EVQLLESGGGLVQPGGSLRLSCAASGFTFSSYAMSWVRQAPGKGLEWVSSIDPEGRQTYYADSVKGRFTISRDNSKNTLYLQMNSLRAEDTAVYYCAKDIGGRSAFDYWGQGTLVTVSS
VL: DIQMTQSPSSLSASVGDRVTITCRASQSISSYLNWYQQKPGKAPKLLIYAASSLQSGVPSRFSGSGSGTDFTLTISSLQPEDFATYYCQQTVVAPPLFGQGTKVEIKR
With B1, in assay [1], the Kd was less than 1 nM.

B2: anti-Jagged 32 IgG (antibody, V domains shown)
VH: EVQLLESGGGLVQPGGSLRLSCAASGFTFSSYAMSWVRQAPGKGLEWVSSIEQMGWQTYYADSVKGRFTISRDNSKNTLYLQMNSLRAEDTAVYYCAKSAAAFDYWGQGTLVTVSS
VL: DIQMTQSPSSLSASVGDRVTITCRASQSISSYLNWYQQKPGKAPKLLIYAASLQSGVPSRFSGSGSGTDFTLTISSLQPEDFATYYCQQTVVAPLTFGQGTKVEIKR
Take B2: in assay [2], the EC50 (read off the curve) amounted to 50 nM. In assay [3], this molecule gave an affinity (ELISA) greater than 30 nM.

B3: anti-Jagged 13 IgG (antibody, V domains shown)
VH: B2 VH with Q53T, M54Q, W56P, Q57T, Y59L, S99T, A100S, A101S
VL: B2 VL with A51S, S75G, T90N, V92A, A93T
In assay [3], B3 displayed an affinity (ELISA) greater than 30 nM.
